Measurements published in patent publication US20250188136A1, “AV3 MUTANT POLYPEPTIDES FOR PEST CONTROL” (Vestaron Corporation, priority 2021, published 2025).
“Also recorded” adds a separate entry of the source. Ends that are not written are not given here.

Assay: Proteolytic resistance of Av3b mutants during production-strain fermentation (rpHPLC)
Type: physicochemical
Settings: for Degradation?: mutant strain fermentation at pH 6.5, 140 hours, rpHPLC; for degradation product during fermentation (HPLC): production strain fermentation at pH 6.5, rpHPLC
Protocol: The mutants in the table below were evaluated for stability in fermentation beer. Fermentation conditions and HPLC analysis were performed as described above. The mutant production strains were generated using YCT306 K. lactis strain. The production of mutants was performed as described in Example 2; fermentation conditions were performed using the same fermentation process described above regarding the Av3b production strain, with pH control at pH 6.5. […] To identify the mutant with proteolytic resistance, the mutant strains were grown under the same fermentation conditions as Av3b, and samples were taken throughout the fermentation process. The samples taken at 140 hour of fermentation process were analyzed in rpHPLC.

Sequence | Degradation? | degradation product during fermentation (HPLC)
KSCCPCYWGGCPWGQNCYPEGCSGPD (ends and bridges not checked; cysteine pairing not given here) [Av3bM100] | Yes | –
KSCCPCYWGGCPWGQNCYPEGCDGPG (ends and bridges not checked; cysteine pairing not given here) [Av3bM171] | Yes | –
KSCCPCYWGGCPWGQNCYPEGCSGPT (ends and bridges not checked; cysteine pairing not given here) [Av3bM111] | Yes | –
KSCCPCYWGGCPWGQNCYPEGCSGRV (ends and bridges not checked; cysteine pairing not given here) [Av3bM147] | Yes | –
KSCCPCYWGGCPWGQNCYPEGCSGGV (ends and bridges not checked; cysteine pairing not given here) [Av3bM146] | Yes | –
KSCCPCYWGGCPWGQNCYPEGCSGPR (ends and bridges not checked; cysteine pairing not given here) [Av3bM98] | No | did not show any degradation product; also recorded: no degradation product
KSCCPCYWGGCPWGQNCYPEGCSGPKG [Av3bM148] | No | did not show any degradation product; also recorded: without apparent degradation products
KSCCPCYWGGCPWGQNCYPEGCSGPA (ends and bridges not checked; cysteine pairing not given here) [Av3bM97] | Yes | –
KSCCPCYWGGCPWGQNCYPEGCSGPKVI [Av3bM168] | Yes | –
KSCCPCYWGGCPWGQNCYPEGCSGPN (ends and bridges not checked; cysteine pairing not given here) [Av3bM99] | Yes | –
KSCCPCYWGGCPWGQNCYPEGCSGPQ (ends and bridges not checked; cysteine pairing not given here) [Av3bM102] | Yes | –
KSCCPCYWGGCPWGQNCYPEGCDGPT (ends and bridges not checked; cysteine pairing not given here) [Av3bM157] | Yes | –
KSCCPCYWGGCPWGQNCYPEGCDGP (ends and bridges not checked; cysteine pairing not given here) [Av3bM172] | Yes | –
KSCCPCYWGGCPWGQNCYPEGCSGPE (ends and bridges not checked; cysteine pairing not given here) [Av3bM101] | Yes | –
KSCCPCYWGGCPWGQNCYPEGCTGPG (ends and bridges not checked; cysteine pairing not given here) [Av3bM169] | Yes | –
KSCCPCYWGGCPWGQNCYPEGCSGPH (ends and bridges not checked; cysteine pairing not given here) [Av3bM104] | Yes | –
KSCCPCYWGGCPWGQNCYPEGCDGPA (ends and bridges not checked; cysteine pairing not given here) [Av3bM156] | Yes | –
